Assay [1] has as its target human MMP-2 (Biomol #SE-237) (human) (UniProt P08253). Put plainly: Ki,app, enzyme inhibition assay (fluorogenic peptide substrate).
Assay [2] addresses Human MMP-9 catalytic domain (BIOMOL, SE-244) (human) (UniProt P14780). Put plainly: cell-based or functional assay.

Where only a bound is given, the exact number is not on record here.

Sequence of Human MMP-9 catalytic domain (BIOMOL, SE-244) (human) (P14780 107-457 limits assumed): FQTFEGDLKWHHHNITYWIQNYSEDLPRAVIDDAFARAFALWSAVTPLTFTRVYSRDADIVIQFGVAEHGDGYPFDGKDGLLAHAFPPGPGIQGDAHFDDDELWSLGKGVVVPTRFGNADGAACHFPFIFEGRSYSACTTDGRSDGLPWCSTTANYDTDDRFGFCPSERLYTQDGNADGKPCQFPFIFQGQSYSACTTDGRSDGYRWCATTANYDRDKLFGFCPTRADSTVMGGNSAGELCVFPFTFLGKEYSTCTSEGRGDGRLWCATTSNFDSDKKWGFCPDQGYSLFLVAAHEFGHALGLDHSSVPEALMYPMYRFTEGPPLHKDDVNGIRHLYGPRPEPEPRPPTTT
Sequence of human MMP-2 (Biomol #SE-237) (human) (P08253 110-452 limits assumed): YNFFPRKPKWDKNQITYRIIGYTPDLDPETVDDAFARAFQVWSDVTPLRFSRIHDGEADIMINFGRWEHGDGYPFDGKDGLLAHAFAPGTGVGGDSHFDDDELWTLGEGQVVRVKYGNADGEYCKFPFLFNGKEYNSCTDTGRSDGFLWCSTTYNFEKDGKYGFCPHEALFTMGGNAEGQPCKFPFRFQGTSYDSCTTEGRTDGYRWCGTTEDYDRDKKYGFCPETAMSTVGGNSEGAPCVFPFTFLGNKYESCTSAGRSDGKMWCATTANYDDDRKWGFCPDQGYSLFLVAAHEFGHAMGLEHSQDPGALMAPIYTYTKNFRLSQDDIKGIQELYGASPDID

For “Anti-hMMP-2 R&D Systems pAb # AF902 (antibody)”, the Ki in assay [1] worked out at 6 nM.
Turning to “Anti-hMMP-9 R&D Systems pAb # AB911 (antibody)”, the IC50 (enzyme inhibition) in assay [2] was over 500 nM.

The values are drawn from patent US20110135573A1, “METALLOPROTEINASE 9 AND METALLOPROTEINASE 2 BINDING PROTEINS” (DYAX CORP., priority 2009, published 2011).
